T1: Biotin-FcγRIIB (human, UniProt P31994 43-217, limits assumed, biotin label)
T1 construct: Soluble labelled protein used to stain and sort the display cells; also called human FcγRIIB; CD32b
T1 sequence (looked up): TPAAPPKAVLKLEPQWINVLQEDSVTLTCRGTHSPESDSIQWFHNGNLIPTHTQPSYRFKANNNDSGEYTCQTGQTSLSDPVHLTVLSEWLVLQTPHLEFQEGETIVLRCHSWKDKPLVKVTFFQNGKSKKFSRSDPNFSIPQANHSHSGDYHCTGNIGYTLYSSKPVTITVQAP


Target: T1, Biotin-FcγRIIB
Experiment: NGS of 3T3 display library Cmix flow-sorted for FcγRIIB binding

Binder	enrichment factor, percentage after 2nd sorting/percentage after 1st sorting [ratio]	enrichment factor, percentage after 3rd sorting/percentage after 2nd sorting [ratio]	percentage after 1st sorting [%]	percentage after 2nd sorting [%]	percentage after 3rd sorting [%]	enrichment factor, percentage after 1st sorting/percentage before sorting [ratio]	enrichment factor, percentage after 3rd sorting/percentage before sorting [ratio]	increased factor, mutant enrichment factor/wild-type enrichment factor [ratio]	percentage before sorting [%]
human IgG2 anti-mouse CD40 surface displayed antibody, H268D/S298L/L328W (antibody, name in EU numbering, As m1 with the Fc mutations) light chain (with the P2A rest): DTVLTQSPALAVSPGERVTISCRASDSVSTLMHWYQQKPGQQPKLLIYLASHLESGVPARFSGSGSGTDFTLTIDPVEADDTATYYCQQSWNDPWTFGGGTKLELKRTVAAPSVFIFPPSDEQLKSGTASVVCLLNNFYPREAKVQWKVDNALQSGNSQESVTEQDSKDSTYSLSSTLTLSKADYEKHKVYACEVTHQGLSSPVTKSFNRGECGSGATNFSLLKQAGDVEENPG heavy chain: EVQLVESDGGLVQPGRSLKLPCAASGFTFSDYYMAWVRQAPTKGLEWVASISYDGSSTYYRDSVKGRFTISRDNAKSTLYLQMDSLRSEDTATYYCGRHSSYFDYWGQGVMVTVSSASTKGPSVFPLAPCSRSTSESTAALGCLVKDYFPEPVTVSWNSGALTSGVHTFPAVLQSSGLYSLSSVVTVPSSNFGTQTYTCNVDHKPSNTKVDKTVERKCCVECPPCPAPPVAGPSVFLFPPKPKDTLMISRTPEVTCVVVDVSDEDPEVQFNWYVDGVEVHNAKTKPREEQFNLTFRVVSVLTVVHQDWLNGKEYKCKVSNKGWPAPIEKTISKTKGQPREPQVYTLPPSREEMTKNQVSLTCLVKGFYPSDIAVEWESNGQPENNYKTTPPMLDSDGSFFLYSKLTVDKSRWQQGNVFSCSVMHEALHNHYTQKSLSLSPGKLEPPPSTVSNMATVAVLVVLGAAIVTGAVVAFVMKMRRRNTGGKGGDYALAPGSQTSDLSLPDCKVMVHDPHSLA	44	5.95	0	0.21	1.25	–	–	–	–
human IgG2 anti-mouse CD40 surface displayed antibody, S239V/V266L/S298L/L328W (antibody, name in EU numbering, As m1 with the Fc mutations) light chain (with the P2A rest): DTVLTQSPALAVSPGERVTISCRASDSVSTLMHWYQQKPGQQPKLLIYLASHLESGVPARFSGSGSGTDFTLTIDPVEADDTATYYCQQSWNDPWTFGGGTKLELKRTVAAPSVFIFPPSDEQLKSGTASVVCLLNNFYPREAKVQWKVDNALQSGNSQESVTEQDSKDSTYSLSSTLTLSKADYEKHKVYACEVTHQGLSSPVTKSFNRGECGSGATNFSLLKQAGDVEENPG heavy chain: EVQLVESDGGLVQPGRSLKLPCAASGFTFSDYYMAWVRQAPTKGLEWVASISYDGSSTYYRDSVKGRFTISRDNAKSTLYLQMDSLRSEDTATYYCGRHSSYFDYWGQGVMVTVSSASTKGPSVFPLAPCSRSTSESTAALGCLVKDYFPEPVTVSWNSGALTSGVHTFPAVLQSSGLYSLSSVVTVPSSNFGTQTYTCNVDHKPSNTKVDKTVERKCCVECPPCPAPPVAGPVVFLFPPKPKDTLMISRTPEVTCVVVDLSHEDPEVQFNWYVDGVEVHNAKTKPREEQFNLTFRVVSVLTVVHQDWLNGKEYKCKVSNKGWPAPIEKTISKTKGQPREPQVYTLPPSREEMTKNQVSLTCLVKGFYPSDIAVEWESNGQPENNYKTTPPMLDSDGSFFLYSKLTVDKSRWQQGNVFSCSVMHEALHNHYTQKSLSLSPGKLEPPPSTVSNMATVAVLVVLGAAIVTGAVVAFVMKMRRRNTGGKGGDYALAPGSQTSDLSLPDCKVMVHDPHSLA	39.1	5.02	0	0.07	0.33	–	–	–	–

The remaining lines, values ahead:

enrichment factor, percentage after 2nd sorting/percentage after 1st sorting [ratio]	enrichment factor, percentage after 3rd sorting/percentage after 2nd sorting [ratio]	percentage after 1st sorting [%]	percentage after 2nd sorting [%]	percentage after 3rd sorting [%]	enrichment factor, percentage after 1st sorting/percentage before sorting [ratio]	enrichment factor, percentage after 3rd sorting/percentage before sorting [ratio]	increased factor, mutant enrichment factor/wild-type enrichment factor [ratio]	percentage before sorting [%]	Binder
47.4	5.76	0	0.03	0.19	–	–	–	–	human IgG2 anti-mouse CD40 surface displayed antibody, S267V/S298G/L328W (antibody, name in EU numbering, As m1 with the Fc mutations) light chain (with the P2A rest): DTVLTQSPALAVSPGERVTISCRASDSVSTLMHWYQQKPGQQPKLLIYLASHLESGVPARFSGSGSGTDFTLTIDPVEADDTATYYCQQSWNDPWTFGGGTKLELKRTVAAPSVFIFPPSDEQLKSGTASVVCLLNNFYPREAKVQWKVDNALQSGNSQESVTEQDSKDSTYSLSSTLTLSKADYEKHKVYACEVTHQGLSSPVTKSFNRGECGSGATNFSLLKQAGDVEENPG heavy chain: EVQLVESDGGLVQPGRSLKLPCAASGFTFSDYYMAWVRQAPTKGLEWVASISYDGSSTYYRDSVKGRFTISRDNAKSTLYLQMDSLRSEDTATYYCGRHSSYFDYWGQGVMVTVSSASTKGPSVFPLAPCSRSTSESTAALGCLVKDYFPEPVTVSWNSGALTSGVHTFPAVLQSSGLYSLSSVVTVPSSNFGTQTYTCNVDHKPSNTKVDKTVERKCCVECPPCPAPPVAGPSVFLFPPKPKDTLMISRTPEVTCVVVDVVHEDPEVQFNWYVDGVEVHNAKTKPREEQFNGTFRVVSVLTVVHQDWLNGKEYKCKVSNKGWPAPIEKTISKTKGQPREPQVYTLPPSREEMTKNQVSLTCLVKGFYPSDIAVEWESNGQPENNYKTTPPMLDSDGSFFLYSKLTVDKSRWQQGNVFSCSVMHEALHNHYTQKSLSLSPGKLEPPPSTVSNMATVAVLVVLGAAIVTGAVVAFVMKMRRRNTGGKGGDYALAPGSQTSDLSLPDCKVMVHDPHSLA
73.6	7.21	0	0.13	0.9	3.92	2080	5550	0	human IgG2 anti-mouse CD40 surface displayed antibody, S267V/S298L/L328W (antibody, name in EU numbering, As m1 with the Fc mutations) light chain (with the P2A rest): DTVLTQSPALAVSPGERVTISCRASDSVSTLMHWYQQKPGQQPKLLIYLASHLESGVPARFSGSGSGTDFTLTIDPVEADDTATYYCQQSWNDPWTFGGGTKLELKRTVAAPSVFIFPPSDEQLKSGTASVVCLLNNFYPREAKVQWKVDNALQSGNSQESVTEQDSKDSTYSLSSTLTLSKADYEKHKVYACEVTHQGLSSPVTKSFNRGECGSGATNFSLLKQAGDVEENPG heavy chain: EVQLVESDGGLVQPGRSLKLPCAASGFTFSDYYMAWVRQAPTKGLEWVASISYDGSSTYYRDSVKGRFTISRDNAKSTLYLQMDSLRSEDTATYYCGRHSSYFDYWGQGVMVTVSSASTKGPSVFPLAPCSRSTSESTAALGCLVKDYFPEPVTVSWNSGALTSGVHTFPAVLQSSGLYSLSSVVTVPSSNFGTQTYTCNVDHKPSNTKVDKTVERKCCVECPPCPAPPVAGPSVFLFPPKPKDTLMISRTPEVTCVVVDVVHEDPEVQFNWYVDGVEVHNAKTKPREEQFNLTFRVVSVLTVVHQDWLNGKEYKCKVSNKGWPAPIEKTISKTKGQPREPQVYTLPPSREEMTKNQVSLTCLVKGFYPSDIAVEWESNGQPENNYKTTPPMLDSDGSFFLYSKLTVDKSRWQQGNVFSCSVMHEALHNHYTQKSLSLSPGKLEPPPSTVSNMATVAVLVVLGAAIVTGAVVAFVMKMRRRNTGGKGGDYALAPGSQTSDLSLPDCKVMVHDPHSLA
